This note sets out measurements from paper PMC10160606, “Identification of GA20ox2 as a target of ATHB2 and TCP13 during shade response”.

In this data set the target is T1, ATHB2 (UniProt Q05466 1-284).
T1 sequence: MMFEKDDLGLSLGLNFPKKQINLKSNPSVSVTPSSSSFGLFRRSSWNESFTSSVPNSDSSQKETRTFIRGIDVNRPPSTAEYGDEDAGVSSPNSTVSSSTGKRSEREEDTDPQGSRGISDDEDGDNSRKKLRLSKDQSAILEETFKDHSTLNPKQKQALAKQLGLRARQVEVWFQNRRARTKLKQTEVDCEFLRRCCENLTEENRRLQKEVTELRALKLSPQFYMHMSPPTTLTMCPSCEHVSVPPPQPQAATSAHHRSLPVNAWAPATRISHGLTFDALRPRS
The data set is described as follows: EMSA; 100x unlabeled identical oligonucleotide used as competitor in a separate lane; LightShift Chemiluminescent EMSA Kit (Thermo Fisher) per manufacturer; native gel; buffer, salt, pH and temperature not stated. Conditions: protein: recombinant; tags: 6xHis (pET-28a); chain copies: 2; label: 3' biotin on both strands; blunt. On the technique in general: Mobility shift assays separate free from complexed probe on a gel.

B1: GA20ox2 promoter ABS1 31-mer (dsDNA)
DNA 1: CAATTTGAAGACAATGTTAGGAATTAGTTAC
DNA 2: GTAACTAATTCCTAACATTGTCTTCAAATTG
Turning to B1, the binding result is on record as “binds”.
